The supplement of paper PMC10724198
± gives the standard deviation of the averaged measurements.

Experiments:
Saccharomyces cerevisiae [1] = test: protein stability index of tFT-peptide fusion (C-terminal peptide) (PSI (0-1 scale)); higher = more stable (slower turnover); settings: genetic background: wild type; temperature: 30 C
Saccharomyces cerevisiae [2] = test: as above
Experimental: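 MPS profiling in S. cerevisiae of the tFT-X12 degron library: putative degron peptides plus stable controls, 12 aa, fused to the C-terminus of a sfGFP-mCherry timer. Cells are FACS-sorted into 8 mCherry/sfGFP bins and deep-sequenced. PSI runs from 0 (unstable) to 1 (stable). Backgrounds are wild type, das1Δ and doa10Δ at 30 °C, and wild type, das1Δ, cdc34-1 and cdc53-1 at 37 °C; 2-3 technical replicates each.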

[3] = genetic background: cdc34-1, temperature: 37 C
[4] = genetic background: cdc53-1, temperature: 37 C
[5] = genetic background: das1 deletion, temperature: 30 C
[6] = genetic background: das1 deletion, temperature: 37 C
[7] = genetic background: doa10 deletion, temperature: 30 C
[8] = genetic background: wild type, temperature: 30 C
[9] = genetic background: wild type, temperature: 37 C
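Also: PSI is a weighted mean of sequencing reads over stability bins, variants kept only with over 10 reads, mCherry proximal and sfGFP distal, peptide attached via GGGS linker.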

Sequence | protein stability index (Saccharomyces cerevisiae [1]) | protein stability index (Saccharomyces cerevisiae [2]; [3]) | protein stability index (Saccharomyces cerevisiae [2]; [4]) | protein stability index (Saccharomyces cerevisiae [2]; [5]) | protein stability index (Saccharomyces cerevisiae [2]; [6]) | protein stability index (Saccharomyces cerevisiae [2]; [7]) | protein stability index (Saccharomyces cerevisiae [2]; [8]) | protein stability index (Saccharomyces cerevisiae [2]; [9])
VCVRLVHCLVLV | 0.265 ± 0.031 | 0.2359 ± 0.0019 | 0.2514 ± 0.0021 | 0.208 ± 0.02 | 0.332 ± 0.0068 | 0.177 ± 0.01 | 0.174 ± 0.017 | 0.283 ± 0.014
GLSVFFFVGFIF | 0.418 ± 0.047 | 0.38 ± 0.091 | 0.452 ± 0.033 | 0.339 ± 0.022 | 0.526 ± 0.021 | 0.306 ± 0.017 | 0.322 ± 0.02 | 0.521 ± 0.031
YFLFRYIVITVF | 0.0865 ± 0.032 | 0.0486 ± 0.029 | 0.0672 ± 0.021 | 0.0711 ± 0.025 | 0.135 ± 0.026 | 0.0326 ± 0.015 | 0.0569 ± 0.012 | 0.06947 ± 0.00069
RRSRLYKKAGLM | 0.301 ± 0.064 | 0.609 ± 0.011 | 0.7374 ± 0.0017 | 0.643 ± 0.02 | 0.745 ± 0.011 | 0.179 ± 0.001 | 0.181 ± 0.037 | 0.296 ± 0.0014
FFVEFFLLCFCS | 0.476 ± 0.0053 | 0.497 ± 0.023 | 0.498 ± 0.024 | 0.463 ± 0.057 | 0.503 ± 0.036 | 0.476 ± 0.0075 | 0.472 ± 0.019 | 0.515 ± 0.033
FSALAPTPLLPL | 0.706 ± 0.042 | 0.703 ± 0.055 | 0.7533 ± 0.0046 | 0.672 ± 0.029 | 0.739 ± 0.016 | 0.662 ± 0.029 | 0.671 ± 0.016 | 0.7063 ± 0.0068
LPAICFWCVLVG | 0.201 ± 0.0059 | 0.0778 ± 0.014 | 0.136 ± 0.00061 | 0.164 ± 0.025 | 0.273 ± 0.035 | 0.133 ± 0.024 | 0.162 ± 0.04 | 0.21 ± 0.013
LLFVLWLSFFVL | 0.346 ± 0.031 | 0.3135 ± 0.0016 | 0.384 ± 0.074 | 0.272 ± 0.03 | 0.449 ± 0.012 | 0.239 ± 0.0027 | 0.247 ± 0.034 | 0.382 ± 0.04
RVSECVSVVGWM | 0.562 ± 0.14 | 0.678 ± 0.082 | 0.723 ± 0.025 | 0.624 ± 0.019 | 0.737 ± 0.011 | 0.619 ± 0.024 | 0.633 ± 0.0064 | 0.7147 ± 0.0044
FVVVCWFWGGGF | 0.425 ± 0.026 | 0.3213 ± 0.0031 | 0.406 ± 0.0042 | 0.283 ± 0.036 | 0.465 ± 0.013 | 0.257 ± 0.012 | 0.27 ± 0.048 | 0.429 ± 0.021
